Measurements taken from article PMC7679967.

Target: human Hsp90β (HSP90AB1) (human) (UniProt P08238)
Experiment: SEC-MALS

Sequence of human Hsp90β (HSP90AB1), P08238 1-724 (natural protein; other documents disagree on this pair) (P08238 whole entry): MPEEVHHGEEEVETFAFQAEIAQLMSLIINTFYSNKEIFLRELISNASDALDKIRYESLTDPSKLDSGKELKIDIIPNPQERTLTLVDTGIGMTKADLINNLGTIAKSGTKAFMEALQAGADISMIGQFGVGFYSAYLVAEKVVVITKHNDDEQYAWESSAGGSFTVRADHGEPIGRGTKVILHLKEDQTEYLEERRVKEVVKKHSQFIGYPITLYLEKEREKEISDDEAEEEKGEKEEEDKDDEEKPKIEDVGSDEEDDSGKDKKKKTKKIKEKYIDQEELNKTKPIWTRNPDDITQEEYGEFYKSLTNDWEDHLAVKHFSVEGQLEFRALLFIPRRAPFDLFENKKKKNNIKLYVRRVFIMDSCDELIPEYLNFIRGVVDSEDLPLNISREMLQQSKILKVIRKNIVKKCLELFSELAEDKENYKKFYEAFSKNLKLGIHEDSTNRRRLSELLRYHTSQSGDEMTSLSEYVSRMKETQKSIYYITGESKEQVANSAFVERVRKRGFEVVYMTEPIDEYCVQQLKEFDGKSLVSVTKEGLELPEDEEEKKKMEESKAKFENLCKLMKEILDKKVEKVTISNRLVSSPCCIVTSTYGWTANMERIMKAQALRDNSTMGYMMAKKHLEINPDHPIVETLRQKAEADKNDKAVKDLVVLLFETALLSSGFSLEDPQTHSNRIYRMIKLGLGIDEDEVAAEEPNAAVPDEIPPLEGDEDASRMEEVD

stoichiometry N: 2
Substance: human Hsp90β (HSP90AB1), P08238 1-724 (natural protein; other documents disagree on this pair)
